Consider one substance from US20170369591.

This series relates to topoisomerase I.
Sequence of topoisomerase I (chain, as listed by the source): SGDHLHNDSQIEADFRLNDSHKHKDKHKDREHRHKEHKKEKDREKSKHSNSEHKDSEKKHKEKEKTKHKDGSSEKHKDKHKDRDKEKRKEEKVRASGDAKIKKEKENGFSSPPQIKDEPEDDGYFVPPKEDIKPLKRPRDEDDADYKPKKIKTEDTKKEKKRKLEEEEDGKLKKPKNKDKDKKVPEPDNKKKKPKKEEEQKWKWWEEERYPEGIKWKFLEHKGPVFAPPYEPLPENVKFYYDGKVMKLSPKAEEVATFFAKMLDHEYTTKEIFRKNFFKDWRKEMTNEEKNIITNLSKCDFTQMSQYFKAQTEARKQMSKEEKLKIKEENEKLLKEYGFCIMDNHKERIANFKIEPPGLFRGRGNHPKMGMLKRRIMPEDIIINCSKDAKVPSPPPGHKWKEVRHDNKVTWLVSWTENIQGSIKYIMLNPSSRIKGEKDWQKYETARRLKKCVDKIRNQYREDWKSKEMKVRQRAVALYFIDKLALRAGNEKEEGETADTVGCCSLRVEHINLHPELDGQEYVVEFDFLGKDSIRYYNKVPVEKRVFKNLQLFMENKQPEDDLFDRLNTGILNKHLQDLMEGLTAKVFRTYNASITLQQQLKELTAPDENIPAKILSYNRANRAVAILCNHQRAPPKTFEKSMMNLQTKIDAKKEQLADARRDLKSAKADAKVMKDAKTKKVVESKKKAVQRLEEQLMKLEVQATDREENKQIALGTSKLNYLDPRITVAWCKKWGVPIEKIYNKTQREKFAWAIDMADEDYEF

As to BRCA1-Flag/BARD1, the “in vitro ubiquitination, immunoblot with anti-ubiquitin” value is “showed ubiquitination of topo I by BRCA 1”.
